Assay results as given in article PMC10397247.
Each block holds one binder with its values, some of them ahead of it.

Key:
4H3631-bH = target: T1, 4H3631-bH; assay: two-hybrid library CCNG1;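 note: natural log of median RNA to DNA barcode read ratio; higher means stronger binding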
T1 chain: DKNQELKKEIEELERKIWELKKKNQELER

4H3638-bH = target: T2, 4H3638-bH; assay: two-hybrid library CCNG1;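 note: natural log of median RNA to DNA barcode read ratio; higher means stronger binding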
T2 chain: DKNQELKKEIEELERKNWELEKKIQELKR

4H3817-bH = target: T3, 4H3817-bH; assay: two-hybrid library CCNG1;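 note: natural log of median RNA to DNA barcode read ratio; higher means stronger binding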
T3 chain: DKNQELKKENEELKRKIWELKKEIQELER

4H3974-bH = target: T4, 4H3974-bH; assay: two-hybrid library CCNG1;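 note: natural log of median RNA to DNA barcode read ratio; higher means stronger binding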
T4 chain: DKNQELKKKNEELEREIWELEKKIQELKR

4H570-bH = target: T5, 4H570-bH; assay: two-hybrid library CCNG1;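 note: natural log of median RNA to DNA barcode read ratio; higher means stronger binding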
T5 chain: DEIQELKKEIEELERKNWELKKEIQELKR

4H584-bH = target: T6, 4H584-bH; assay: two-hybrid library CCNG1;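 note: natural log of median RNA to DNA barcode read ratio; higher means stronger binding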
T6 chain: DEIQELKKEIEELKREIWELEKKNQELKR

4H619-bH = target: T7, 4H619-bH; assay: two-hybrid library CCNG1
T7 chain: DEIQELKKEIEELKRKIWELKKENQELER

4H850-bH = target: T8, 4H850-bH; assay: two-hybrid library CCNG1
T8 chain: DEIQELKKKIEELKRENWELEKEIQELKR

4H906-bH = target: T9, 4H906-bH; assay: two-hybrid library CCNG1
T9 chain: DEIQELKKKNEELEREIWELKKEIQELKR

4H953-bH = target: T10, 4H953-bH; assay: two-hybrid library CCNG1
T10 chain: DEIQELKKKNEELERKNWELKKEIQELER

APC2811-AA = target: T11, APC2811-AA; assay: two-hybrid library CCmax
T11 chain: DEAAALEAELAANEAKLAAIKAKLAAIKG

APC2981-AA = target: T12, APC2981-AA; assay: two-hybrid library CCmax; conditions: mean of both orientations
T12 chain: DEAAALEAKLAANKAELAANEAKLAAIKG

APC3265-AA = target: T13, APC3265-AA; assay: two-hybrid library CCmax; conditions: mean of both orientations
T13 chain: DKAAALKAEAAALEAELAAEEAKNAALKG

APC3323-AA = target: T14, APC3323-AA; assay: two-hybrid library CCmax; conditions: mean of both orientations
T14 chain: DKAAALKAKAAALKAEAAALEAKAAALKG

APC3354-AA = target: T15, APC3354-AA; assay: two-hybrid library CCmax; conditions: mean of both orientations
T15 chain: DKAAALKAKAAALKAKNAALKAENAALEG

APC3881-AA = target: T16, APC3881-AA; assay: two-hybrid library CCmax; conditions: mean of both orientations
T16 chain: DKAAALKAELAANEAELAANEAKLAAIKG

APC4100-AA = target: T17, APC4100-AA; assay: two-hybrid library CCmax; conditions: mean of both orientations
T17 chain: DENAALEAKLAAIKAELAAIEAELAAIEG

APC4336-AA = target: T18, APC4336-AA; assay: two-hybrid library CCmax; conditions: mean of both orientations
T18 chain: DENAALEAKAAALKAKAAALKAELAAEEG

APC5009-AA = target: T19, APC5009-AA; assay: two-hybrid library CCmax; conditions: mean of both orientations
T19 chain: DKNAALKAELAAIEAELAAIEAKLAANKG

APC542-AA = target: T20, APC542-AA; assay: two-hybrid library CCmax; conditions: mean of both orientations
T20 chain: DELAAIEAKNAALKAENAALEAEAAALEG

APC5531-AA = target: T21, APC5531-AA; assay: two-hybrid library CCmax; conditions: mean of both orientations
T21 chain: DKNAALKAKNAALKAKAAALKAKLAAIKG

APC6088-AA = target: T22, APC6088-AA; assay: two-hybrid library CCmax; conditions: mean of both orientations
T22 chain: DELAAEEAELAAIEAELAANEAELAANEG

APC7524-AA = target: T23, APC7524-AA; assay: two-hybrid library CCmax; conditions: mean of both orientations
T23 chain: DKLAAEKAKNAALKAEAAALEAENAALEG

APC8401-AA = target: T24, APC8401-AA; assay: two-hybrid library CCmax; conditions: mean of both orientations
T24 chain: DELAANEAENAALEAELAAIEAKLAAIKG

APC8516-AA = target: T25, APC8516-AA; assay: two-hybrid library CCmax; conditions: mean of both orientations
T25 chain: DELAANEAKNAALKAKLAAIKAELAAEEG

APC9141-AA = target: T26, APC9141-AA; assay: two-hybrid library CCmax; conditions: mean of both orientations
T26 chain: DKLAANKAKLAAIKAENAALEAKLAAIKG

APC9182-AA = target: T27, APC9182-AA; assay: two-hybrid library CCmax; conditions: mean of both orientations
T27 chain: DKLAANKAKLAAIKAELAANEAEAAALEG

APC9291-AA = target: T28, APC9291-AA; assay: two-hybrid library CCmax; conditions: mean of both orientations
T28 chain: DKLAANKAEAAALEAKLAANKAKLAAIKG

APC9806-AA = target: T29, APC9806-AA; assay: two-hybrid library CCmax; conditions: mean of both orientations
T29 chain: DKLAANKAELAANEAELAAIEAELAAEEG

P5mS = target: T30, P5mS; assay: two-hybrid library CC1
T30 chain: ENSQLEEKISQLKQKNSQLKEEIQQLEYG

P6SC1 = target: T31, P6SC1; assay: two-hybrid library CC1; conditions: mean of both orientations
T31 chain: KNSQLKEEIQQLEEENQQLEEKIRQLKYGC

P6SC2 = target: T32, P6SC2; assay: two-hybrid library CC1; conditions: mean of both orientations
T32 chain: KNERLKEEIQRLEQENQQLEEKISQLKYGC

P6 = target: T33, P6; assay: two-hybrid library CC1; conditions: mean of both orientations
T33 chain: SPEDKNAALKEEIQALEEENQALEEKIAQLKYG

P6mS = target: T34, P6mS; assay: two-hybrid library CC1; conditions: mean of both orientations
T34 chain: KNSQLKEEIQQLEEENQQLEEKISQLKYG

P7 = target: T35, P7; assay: two-hybrid library CC1; conditions: mean of both orientations
T35 chain: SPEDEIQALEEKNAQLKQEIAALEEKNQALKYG

P7mS = target: T36, P7mS; assay: two-hybrid library CC1; conditions: mean of both orientations
T36 chain: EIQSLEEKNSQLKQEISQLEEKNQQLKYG

P8 = target: T37, P8; assay: two-hybrid library CC1; conditions: mean of both orientations
T37 chain: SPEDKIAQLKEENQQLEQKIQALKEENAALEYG

P8mS = target: T38, P8mS; assay: two-hybrid library CC1; conditions: mean of both orientations
T38 chain: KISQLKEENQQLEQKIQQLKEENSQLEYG

P9 = target: T39, P9; assay: two-hybrid library CC1; conditions: mean of both orientations
T39 chain: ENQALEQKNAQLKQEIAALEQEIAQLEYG

interaction score (4H3631-bH): 1.13 | interaction score (4H3638-bH): 0.578 | interaction score (4H3817-bH): 0.637 | interaction score (4H3974-bH): 0.292 | interaction score (4H570-bH): -1.5 | interaction score (4H584-bH): -0.0526 | interaction score (4H619-bH): 0.647 | interaction score (4H850-bH): -1.94 | interaction score (4H906-bH): -1.74 | interaction score (4H953-bH): 0.206
B1: 4H3631-bH (peptide)
chain: DKNQELKKEIEELERKIWELKKKNQELER

interaction score (APC2811-AA): -0.415 | interaction score (APC2981-AA): -1.57 | interaction score (APC3265-AA): -1.3 | interaction score (APC3323-AA): -1.68 | interaction score (APC3354-AA): -1.67 | interaction score (APC3881-AA): -1.68 | interaction score (APC4100-AA): 0.341 | interaction score (APC4336-AA): -1.61 | interaction score (APC5009-AA): -0.812 | interaction score (APC542-AA): -1.59 | interaction score (APC5531-AA): -1.88 | interaction score (APC6088-AA): -1.51 | interaction score (APC7524-AA): -1.75 | interaction score (APC8401-AA): -1.58 | interaction score (APC8516-AA): -1.65 | interaction score (APC9141-AA): -1.29 | interaction score (APC9182-AA): -1.35 | interaction score (APC9291-AA): -1.78 | interaction score (APC9806-AA): -1.74
B2: APC2811-AA (peptide)
chain: DEAAALEAELAANEAKLAAIKAKLAAIKG

B3: P5mS (peptide)
chain: ENSQLEEKISQLKQKNSQLKEEIQQLEYG
interaction score (P5mS): -3.02 | interaction score (P6SC1): 0.104 | interaction score (P6SC2): 0.207 | interaction score (P6): 0.124 | interaction score (P6mS): -0.205 | interaction score (P7): -2.73 | interaction score (P7mS): -2.67 | interaction score (P8): -2.02 | interaction score (P8mS): -2.74 | interaction score (P9): -2.67
